Test in all cases: cell-based or functional assay
Test [1] has as its target MCR1 (human, UniProt Q01726 1-317).
The target in test [2] is MCR3 (human, UniProt P41968 1-323).
The target of test [3] is MCR4 (human, UniProt P32245 1-332).
The target in test [4] is MCR5 (human, UniProt P33032 1-325).

Square brackets hold non-standard residues; d marks the D form. Ends that are not written are not given here. Nle = CCCC[C@H](N)C(=O)O; βAla = NCCC(=O)O Some results are limits rather than exact numbers.

Chain of MCR5 (P33032 whole entry): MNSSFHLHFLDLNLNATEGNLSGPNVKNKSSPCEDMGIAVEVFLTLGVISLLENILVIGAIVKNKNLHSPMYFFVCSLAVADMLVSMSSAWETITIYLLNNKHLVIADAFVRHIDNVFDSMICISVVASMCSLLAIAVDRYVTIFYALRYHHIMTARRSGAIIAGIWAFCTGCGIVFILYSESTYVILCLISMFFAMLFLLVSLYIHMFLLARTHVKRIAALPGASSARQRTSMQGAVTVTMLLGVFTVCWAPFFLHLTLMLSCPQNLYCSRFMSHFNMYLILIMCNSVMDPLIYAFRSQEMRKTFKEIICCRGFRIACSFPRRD
Chain of MCR3 (P41968 whole entry): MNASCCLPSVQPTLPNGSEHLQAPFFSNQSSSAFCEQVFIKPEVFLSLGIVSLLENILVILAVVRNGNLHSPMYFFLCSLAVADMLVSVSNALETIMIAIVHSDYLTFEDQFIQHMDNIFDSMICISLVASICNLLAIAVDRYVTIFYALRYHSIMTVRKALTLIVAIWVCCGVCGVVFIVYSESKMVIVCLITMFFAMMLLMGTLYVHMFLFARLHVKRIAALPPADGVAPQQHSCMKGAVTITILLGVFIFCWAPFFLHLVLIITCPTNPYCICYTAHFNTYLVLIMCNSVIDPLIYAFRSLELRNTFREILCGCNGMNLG
Chain of MCR4 (P32245 whole entry): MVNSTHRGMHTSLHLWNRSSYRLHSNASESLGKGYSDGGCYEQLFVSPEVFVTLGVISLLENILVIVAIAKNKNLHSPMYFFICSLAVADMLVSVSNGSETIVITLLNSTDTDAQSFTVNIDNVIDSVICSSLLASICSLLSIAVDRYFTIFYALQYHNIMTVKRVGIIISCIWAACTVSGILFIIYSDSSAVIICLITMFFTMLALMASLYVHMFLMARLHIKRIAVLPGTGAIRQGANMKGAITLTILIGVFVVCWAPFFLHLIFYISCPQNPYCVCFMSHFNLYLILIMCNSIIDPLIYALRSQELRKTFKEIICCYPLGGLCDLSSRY
Chain of MCR1 (Q01726 whole entry): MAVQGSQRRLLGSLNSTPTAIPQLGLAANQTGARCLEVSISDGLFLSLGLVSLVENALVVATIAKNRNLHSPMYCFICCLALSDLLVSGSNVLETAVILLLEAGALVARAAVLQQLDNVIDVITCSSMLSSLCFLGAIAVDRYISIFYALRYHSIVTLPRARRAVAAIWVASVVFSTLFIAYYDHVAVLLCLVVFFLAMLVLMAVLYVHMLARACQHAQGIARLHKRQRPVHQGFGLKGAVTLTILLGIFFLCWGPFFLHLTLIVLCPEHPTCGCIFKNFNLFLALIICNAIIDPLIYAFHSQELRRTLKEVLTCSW

B1: ACTH1-24-linker-MMP (broad) site-linker-NDP-α-MSH (peptide)
peptide: SYSMEHFRWGKPVGKKRRPVKVYPGGGGSPAGLVAGGGGSSYS[Nle]EH[dF]RWGKPV
modifications: ends and bridges not checked
On to B1, for which, in test [1], the “MCR1 EC50 (nM); cAMP production, LANCE cAMP assay, CHO-MCR1 cells, cell pool B” value was found to be 0.528 nM and the “MCR1 EC50 (nM); cAMP production, LANCE cAMP assay, CHO-MCR1 cells, cell pool B (second value printed below the first)” value was 0.36 nM. In addition, the “MCR3 EC50 (nM); cAMP production, LANCE cAMP assay, CHO-MCR3 cells, cell pool B” value (“MCR3 EC50 (nM); cAMP production … cell pool B” below) in test [2] was 1 nM. Besides, the “MCR4 EC50 (nM); cAMP production, LANCE cAMP assay, CHO-MCR4 cells, cell pool B” value (shortened to “MCR4 EC50 (nM); cAMP production … cell pool B”) in test [3] was 4.8 nM.
On to SYSXEHXRWGKPVGKKRRPVKVYP (Nle and DPhe as printed: SYS-Nle-EH-DPhe-RWGKPVGKKRRPVKVYP) [NDP-ACTH], for which, in test [1], the “MCR1 EC50 (nM); cAMP production, LANCE cAMP assay, CHO-MCR1 cells, cell pool C” value (“MCR1 EC50 (nM); cAMP production … cell pool C” for short) was determined as 0.11 nM. The “MCR3 EC50 (nM); cAMP production, LANCE cAMP assay, CHO-MCR3 cells, cell pool C” value (“MCR3 EC50 (nM); cAMP production … cell pool C” below) in test [2] worked out at 0.21 nM. In addition, the “MCR4 EC50 (nM); cAMP production, LANCE cAMP assay, CHO-MCR4 cells, cell pool C” value (shortened to “MCR4 EC50 (nM); cAMP production … cell pool C”) in test [3] was 0.22 nM. The “MCR5 EC50 (nM); cAMP production, LANCE cAMP assay, CHO-MCR5 cells, cell pool C” value (“MCR5 EC50 (nM); cAMP production” for short) in test [4] worked out at 1.1 nM.
As to SYSMEHFRWGKPVGKKRRPVKVYPGGGGSRRKRSYSMEHFRWGKPV [ACTH1-24-proconvertase-α-MSH], the “MCR1 EC50 (nM); cAMP production, LANCE cAMP assay, CHO-MCR1 cells, cell pool B” value in test [1] stood at 0.92 nM. In addition, in test [2], the “MCR3 EC50 (nM); cAMP production … cell pool B” value came out at 6.1 nM. For the same molecule, the “MCR4 EC50 (nM); cAMP production … cell pool B” value in test [3] turned out to be 26 nM.
SYSMEHFRWGKPVGKKAAAVKVYP [ACTH1-24-point-3-5]: the “MCR1 EC50 (nM); cAMP production … cell pool C” value in test [1] turned out to be 0.54 nM. For the same molecule, in test [2], the “MCR3 EC50 (nM); cAMP production … cell pool C” value was determined as 14 nM. The “MCR4 EC50 (nM); cAMP production … cell pool C” value in test [3] worked out at 128 nM. In test [4], the “MCR5 EC50 (nM); cAMP production” value is more than 100 nM.
In the case of SYSMEHFRWGKPVGKKRRPVKVYPNGAEDESAEAFPLEFKR [ACTH1-39], in test [1], the “MCR1 EC50 (nM); cAMP production, LANCE cAMP assay, CHO-MCR1 cells, cell pool B” value was found to be 0.55 nM. Further, in test [2], the “MCR3 EC50 (nM); cAMP production … cell pool B” value was 18 nM. The “MCR4 EC50 (nM); cAMP production … cell pool B” value in test [3] was determined as 31 nM.
Turning to [Nle]EH[dF]RW[βAla]G[βAla][Nle]EH[dF]RW [NDP-ACTH4-9-βAla-G-βAla-NDP-ACTH4-9], in test [1], the “MCR1 EC50 (nM); cAMP production, LANCE cAMP assay, CHO-MCR1 cells, cell pool B” value worked out at 0.35 nM. In addition, in test [2], the “MCR3 EC50 (nM); cAMP production … cell pool B” value stood at 25 nM. Also, in test [3], the “MCR4 EC50 (nM); cAMP production … cell pool B” value was found to be 6.7 nM.

B2: ACTH1-24-natural C-terminal spacer-NDP-α-MSH (peptide)
peptide: SYSMEHFRWGKPVGKKRRPVKVYPELTGQRLREGDGPDGPADDGAGASYS[Nle]EH[dF]RWGKPV
modifications: ends and bridges not checked
With B2, in test [1], the “MCR1 EC50 (nM); cAMP production, LANCE cAMP assay, CHO-MCR1 cells, cell pool B” value was determined as 0.8 nM. Further, the “MCR3 EC50 (nM); cAMP production … cell pool B” value in test [2] was determined as 1.66 nM. The “MCR4 EC50 (nM); cAMP production … cell pool B” value in test [3] amounted to 8.7 nM.
Turning to SYSMEHFRWGKPVGAARRPVKVYP [ACTH1-24-point-1-2], the “MCR1 EC50 (nM); cAMP production … cell pool C” value in test [1] came out at 0.43 nM. Moreover, the “MCR3 EC50 (nM); cAMP production … cell pool C” value in test [2] was 10 nM. In addition, in test [3], the “MCR4 EC50 (nM); cAMP production … cell pool C” value was found to be 62 nM. Also, the “MCR5 EC50 (nM); cAMP production” value in test [4] was 275 nM.

B3: NDP-α-MSH-linker-MMP (broad) site-linker-ACTH1-24 (peptide)
peptide: Ac-SYS[Nle]EH[dF]RWGKPVGGGGSPAGLVAGGGGSSYSMEHFRWGKPVGKKRRPVKVYP
With B3, the “MCR1 EC50 (nM); cAMP production, LANCE cAMP assay, CHO-MCR1 cells, cell pool B” value in test [1] came out at 0.295 nM. The “MCR3 EC50 (nM); cAMP production … cell pool B” value in test [2] amounted to 1.5 nM. Further, the “MCR4 EC50 (nM); cAMP production … cell pool B” value in test [3] is 1.9 nM.

B4: NDP-α-MSH-linker-Furin site-linker-ACTH1-24 (peptide)
peptide: Ac-SYS[Nle]EH[dF]RWGKPVGGGGSRRKRGGGGSSYSMEHFRWGKPVGKKRRPVKVYP
For the molecule B4, the “MCR1 EC50 (nM); cAMP production, LANCE cAMP assay, CHO-MCR1 cells, cell pool B” value in test [1] worked out at 0.333 nM. The “MCR3 EC50 (nM); cAMP production … cell pool B” value in test [2] came to 4 nM. The “MCR4 EC50 (nM); cAMP production … cell pool B” value in test [3] was determined as 6.5 nM.
Regarding YVMGHFRWDRFGSYSMEHFRWGKPVGKKRRPVKVYP [γ-MSH-ACTH1-24 without linker and cleavage site], the “MCR1 EC50 (nM); cAMP production, LANCE cAMP assay, CHO-MCR1 cells, cell pool A” value in test [1] came out at 12 nM. In addition, the “MCR3 EC50 (nM); cAMP production, LANCE cAMP assay, CHO-MCR3 cells, cell pool A” value in test [2] stood at 33 nM.

B5: NDP-α-MSH-linker-MMP site-linker-ACTH1-24 (peptide)
peptide: Ac-SYS[Nle]EH[dF]RWGKPVGGGGSPLGLWAGGGGSSYSMEHFRWGKPVGKKRRPVKVYP
In the case of B5, the “MCR1 EC50 (nM); cAMP production, LANCE cAMP assay, CHO-MCR1 cells, cell pool B” value in test [1] was 2.4 nM. The “MCR3 EC50 (nM); cAMP production … cell pool B” value in test [2] amounted to 17 nM. For the same molecule, the “MCR4 EC50 (nM); cAMP production … cell pool B” value in test [3] amounted to 14 nM.

B6: ACTH1-24-natural N-terminal spacer-α-MSH (peptide)
peptide: SYSMEHFRWGKPVGKKRRPVKVYPPLPEGGPEPRSDGAKPGPREGKRSYSMEHFRWGKPV
As for B6, the “MCR1 EC50 (nM); cAMP production, LANCE cAMP assay, CHO-MCR1 cells, cell pool B” value in test [1] amounted to 0.82 nM. Besides, in test [2], the “MCR3 EC50 (nM); cAMP production … cell pool B” value is 6.2 nM. The “MCR4 EC50 (nM); cAMP production … cell pool B” value in test [3] was more than 20 nM.

The record behind these values is patent US20190054150A1 (AEQUUS BIOPHARMA, published 2019).
